According to patent US20230227580A1, “ANTI-VWF ANTIBODIES AND USES THEREOF” (MONASH UNIVERSITY, priority 2020, published 2023):
Where no end group is shown, it is not given here.

Key:
VWF = VWF (Homo sapiens, UniProt P04275); test: VWF binding in the presence or absence of ristocetin (FIG. 7)
platelet GPIbα = target: T1, platelet GPIbα (Homo sapiens, UniProt P07359); test: Platelet adhesion to collagen III under constant shear, whole blood perfusion with OS-1; assay type: cell-based; conditions: for Numbers of adherent platelets: 20 µg ml^-1 abciximab; for Platelet adhesion (relative, fluorescence intensity): collagen III, 1,500 s^-1
T1 construct: endogenous in cells; host or cells: platelets in citrated whole blood
From the text: (§1) In-house designed PDMS microfluidic chips (FIG. 1A) contained channels of 52 µm height with a footprint of 300 µm x 46 mm (used in FIG. 1) or 300 µm x 17 mm. Selected channels incorporated a semi-circular stenotic section of various lengths (600 µm, 1000 µm or 2000 µm diameter), creating 80% lumen reduction. Chips were manufactured as previously reported (Westein et al. Proceedings of the National Academy of Sciences of the United States of America. 2013 Jan 22;110(4):1357-62). The produced PDMS chips were sealed with cover slips by hydrophobic interaction and coated with collagen by perfusion of collagen solution followed by static incubation at RT for at least 1 hr. Channels were rinsed with PBS and blocked with 2% BSA. Wall shear rates of the input flow for these microchannels were approximated from volumetric flow rates by using the equation, γ = 6Q/wh2. Herein, γ is the wall shear rate (s^-1), Q the volumetric flow rate (mls^-1), w the channel with (cm) and h the channel height (cm).
(§2) Citrated whole blood was incubated with DiOC6 (0.5 µg ml^-1) (Sigma-Aldrich Co, St. Louis, MO, USA) and drawn through microfluidic channels by a programmable syringe pump (Legato 130, KD Scientific, USA). Time-lapse z-stack images of platelet deposition were captured in multiple track, resonant scanning mode, using a Nikon A1R confocal microscope system. Platelet deposition was recorded over time (2 frames per minute) for up to 20 minutes and quantified in ImageJ using a Z-projection of the acquired signal.
For experiments measuring rolling velocities, anti αllbβ3 antibody (abciximab; 20 µg ml^-1)-treated whole blood containing 0.5 µg ml^-1 DiOC6 was drawn over a collagen type III-coated surface. Where indicated, blood was incubated with 30 µM aspirin (Sigma Aldrich, USA) and 300 µM 2-MeSAMP (Sigma-Aldrich Co, St. Louis, MO, USA) prior to blood perfusion. 10 second video clips of rolling platelets were recorded in the green fluorescent channel using an Olympus IX81 microscope system. Platelet rolling velocities were calculated using Diatrack v3.04 large scale particle tracking software (Vallotton et al. Microsc Microanal. 2013 Apr;19(2):451-60).

[1] = system: thrombus formation / platelet deposition; test: Thrombus formation on collagen type I in stenosis channels (SRG versus constant shear); assay type: cell-based, human; conditions: 15 minutes of blood flow; for Platelet deposition: 0.1 µM OS-1
From the text: as §1, §2

How did the “Mechanism of VWF binding (dependence on conformation)” value (VWF) turn out when “Cablivi: commercially available antibody (Cablivi®, Sanofi) binding VWF [reference compound]” was run?
The value was “conformation independent”.

With “OS-1: cyclic peptide, allosteric inhibitor of GPlbα/VWF interactions with sequence CTERMALHNLC, obtained from Auspep (also: cyclic peptide, ring not described) [reference compound]” as the substance, how does the “Numbers of adherent platelets” value (platelet GPIbα; 3 µM OS-1, constant shear 2,000 s^-1) read?
The value was 11±4 platelets per field.

What about the “Numbers of adherent platelets” value (platelet GPIbα; 3 µM OS-1, constant shear above 500 s^-1) of the same substance?
The value was 53±4 platelets per field.

And the “Platelet adhesion (relative, fluorescence intensity)” value (platelet GPIbα; 3 µM OS-1)?
The value was “completely abolished”.

What about the “Platelet adhesion (relative, fluorescence intensity)” value (platelet GPIbα; increasing concentrations of OS-1) of the same substance?
The value was “concentration dependently reduced”.

What about the Platelet deposition ([1]; constant shear) of the same substance?
Its Platelet deposition is “inhibited”.

What about the Platelet deposition ([1]; shear gradient conditions) of the same substance?
Its Platelet deposition is “inhibited”.

And the Thrombus formation ([1]; 2000 s^-1 constant shear)?
The Thrombus formation was “reduced thrombus formation”.

And the Thrombus formation ([1]; SRGs (187-1,500 s^-1))?
The Thrombus formation was “inhibited thrombus formation”.

What about the Thrombus formation ([1]; SRGs (300-2,000 s^-1)) of the same substance?
The Thrombus formation was “inhibited thrombus formation”.
